# Test results as given in the RNAGym collection of RNA variant scans (doi:10.1021/acssynbio.7b00057).
# B1: Pistol ribozyme (parent)
# chain: GGGUCGUUGUUCCAUAAUCGCGUGGAUAUGGCACGCAAGUUUCUACCGGGCACCGUAAAUGUCCGACUGGAGCCGUUCGGGCGGCUAUAAACAGACCUCAGGCCCGAAGCGUGGCGGCACCUGCCGCCGGUGGUAAAAAAGAUCGGAAGAGCACACGUCU
# Variants of: B1
# Assay: aptazyme ON/OFF ratio, guanine; higher = stronger switching; co-transcriptional cleavage with and without guanine
row,Variant,aptazyme ON/OFF ratio
1,U8A G9C U10G U11A C12A,1.31
2,U8A G9C U10G U11A C12G,1.28
3,U8A G9U U10C U11C C12G C13G,1.08
4,U8A G9U U10C U11C C12G C13A,1.07
5,U8A G9U U10C U11C C12G C13U,1.02
6,U8A G9C U10G U11C C12A C13U,1.21
7,U8A G9C U10G U11C C12A C13A,1.17
8,U8A G9C U10G U11C C12A C13G,1.12
9,U8A G9U U10A U11C C12A C13G,1.2
10,U8A G9U U10A U11C C12A C13A,1.23
11,U8A G9U U10A U11C C12A C13U,1.25
12,U8A G9C U10C,1.35
13,U8A G9C U10G,1.54
14,U8A G9U U10A U11A C12G,1.25
15,U8A G9U U10A U11A C12A,1.36
16,U8A G9U U10A U11A C12U,1.32
17,U8A G9C U10G U11A C12A C13A,1.18
18,U8A G9C U10G U11A C12A C13U,1.21
19,U8A G9C U10G U11A C12A C13G,1.16
20,U8A G9C U10C U11A C12A C13A,1.04
21,U8A G9C U10C U11A C12A C13U,1.13
22,U8A G9C U10C U11A C12A C13G,1.05
23,U8A G9C U10G U11A C12U C13U,1.08
24,U8A G9C U10G U11A C12U C13A,1.12

row,Variant,aptazyme ON/OFF ratio
1,U8A G9C U10G U11A C12U C13G,1.11
2,U8A G9C U10C U11G C12U C13A,1.07
3,U8A G9C U10C U11G C12U C13G,1.08
4,U8A G9C U10C U11G C12U C13U,1.07
5,U8A G9U U10C U11A C12G,1.06
6,U8A G9U U10C U11A C12A,1.11
7,U8A G9U U10C U11A C12U,1.18
8,U8A G9C U10C U11A C13A,1.16
9,U8A G9C U10C U11A C13G,1.07
10,U8A G9C U10C U11A C13U,1.11
11,U8A G9U U10G C12A C13G,1.12
12,U8A G9U U10G C12A C13A,1.18
13,U8A G9U U10G C12A C13U,1.5
14,U8A G9U U10A U11C C12A,1.07
15,U8A G9U U10A U11C C12G,1.09
16,U8A G9U U10A U11C C12U,1.11
17,U8A G9U U10C U11A C13U,1.17
18,U8A G9U U10C U11A C13G,1.03
19,U8A G9U U10C U11A C13A,1.06
20,U8A G9U U10C U11C C13U,1.03
21,U8A G9U U10C U11C C13A,1
22,U8A G9U U10C U11C C13G,1.01
23,U8A G9C U11C C12U C13U,1.01
24,U8A G9C U11C C12U C13A,1.05

row,Variant,aptazyme ON/OFF ratio
1,U8A G9C U11C C12U C13G,1.04
2,U8A G9C U10G U11G C12A C13A,1.13
3,U8A G9C U10G U11G C12A C13G,1.14
4,U8A G9C U10G U11G C12A C13U,1.21
5,U8A G9U U10C U11C C12U C13U,1.04
6,U8A G9U U10C U11C C12U C13G,1.04
7,U8A G9U U10C U11C C12U C13A,1.04
8,U8A G9C U10C C13G,1.01
9,U8A G9C U10C C13U,1.06
10,U8A G9C U10C C13A,1.01
11,U8A G9C U10C U11A C12U,1.13
12,U8A G9C U10C U11A C12G,1.03
13,U8A G9C U10C U11A C12A,1.06
14,U8A G9U U10A U11C C12U C13U,1.18
15,U8A G9U U10A U11C C12U C13G,1.22
16,U8A G9U U10A U11C C12U C13A,1.25
17,U8A G9C U10C C12G C13A,1.07
18,U8A G9C U10C C12G C13U,1.05
19,U8A G9C U10C C12G C13G,1.03
20,U8A G9C U11A C13G,1.06
21,U8A G9C U11A C13A,1.16
22,U8A G9C U11A C13U,1.16
23,U8A G9C U10G U11C C12U C13A,1.13
24,U8A G9C U10G U11C C12U C13U,1.16

row,Variant,aptazyme ON/OFF ratio
1,U8A G9C U10G U11C C12U C13G,1.18
2,U8A G9C U10C U11C C13U,0.998
3,U8A G9C U10C U11C C13A,1.02
4,U8A G9C U10C U11C C13G,1.06
5,U8A G9U C12U,1.46
6,U8A G9U C12A,1.22
7,U8A G9U C12G,1.18
8,U8A G9U C12G C13G,1.23
9,U8A G9U C12G C13U,1.26
10,U8A G9U C12G C13A,1.21
11,U8A G9U U10C U11G C12U C13G,1.14
12,U8A G9U U10C U11G C12U C13A,1.11
13,U8A G9U U10C U11G C12U C13U,1.25
14,U8A G9C U10G U11C C12A,1.18
15,U8A G9C U10G U11C C12U,1.05
16,U8A G9C U10G U11C C12G,1.14
17,U8A G9U U10C U11A C12U C13G,1.1
18,U8A G9U U10C U11A C12U C13A,1.26
19,U8A G9U U10C U11A C12U C13U,1.15
20,U8A G9C U10G C13U,1.31
21,U8A G9C U10G C13A,1.38
22,U8A G9C U10G C13G,1.17
23,U8A G9U U10C U11G C12A C13U,1.12
24,U8A G9U U10C U11G C12A C13G,1.25

row,Variant,aptazyme ON/OFF ratio
1,U8A G9U U10C U11G C12A C13A,1.19
2,U8A G9C U10C C12G,1.05
3,U8A G9C U10C C12A,1.04
4,U8A G9C U10C C12U,1.06
5,U8A G9C U10C C12A C13U,0.995
6,U8A G9C U10C C12A C13G,1.08
7,U8A G9C U10C C12A C13A,1.03
8,U8A G9C U10G U11C C12G C13G,1.17
9,U8A G9C U10G U11C C12G C13U,1.19
10,U8A G9C U10G U11C C12G C13A,1.27
11,U8A G9U U10A U11G C12U C13A,1.27
12,U8A G9U U10A U11G C12U C13U,1.4
13,U8A G9U U10A U11G C12U C13G,1.17
14,U8A G9C U10C U11G,0.775
15,U8A G9C U10C U11A,0.878
16,U8A G9C U10C U11C,1.01
17,U8A G9U U10A U11G C12G C13U,1.31
18,U8A G9U U10A U11G C12G C13G,1.24
19,U8A G9U U10A U11G C12G C13A,1.1
20,U8A G9C U10C U11C C12U C13G,1.01
21,U8A G9C U10C U11C C12U C13A,1.01
22,U8A G9C U10C U11C C12U C13U,1.03
23,U8A G9C U10C U11G C13U,1.08
24,U8A G9C U10C U11G C13A,1.08

row,Variant,aptazyme ON/OFF ratio
1,U8A G9C U10C U11G C13G,1.05
2,U8A G9C U10C U11A C12U C13G,1.06
3,U8A G9C U10C U11A C12U C13A,1.07
4,U8A G9C U10C U11A C12U C13U,1.13
5,U8A G9C U10C U11G C12G,1.12
6,U8A G9C U10C U11G C12A,1.07
7,U8A G9C U10C U11G C12U,1.08
8,U8A G9C U10C U11C C12U,1
9,U8A G9C U10C U11C C12G,1.01
10,U8A G9C U10C U11C C12A,1.04
11,U8A G9C U11C C12U,1.09
12,U8A G9C U11C C12A,1.08
13,U8A G9C U11C C12G,1.07
14,U8A G9C U10G U11C C13G,1.06
15,U8A G9C U10G U11C C13A,1.11
16,U8A G9C U10G U11C C13U,1.03
17,U8A G9C U10A U11G C13U,1.18
18,U8A G9C U10G U11G C12G C13A,1.14
19,U8A G9C U10G U11G C12G C13U,1.31
20,U8A G9C U10G U11G C12G C13G,1.23
21,U8A G9U U10A C12G C13A,1.34
22,U8A G9U U10A C12G C13G,1.28
23,U8A G9U U10A C12G C13U,1.33
24,U8A G9C U11C C12G C13U,1.06

row,Variant,aptazyme ON/OFF ratio
1,U8A G9C U11C C12G C13A,1.07
2,U8A G9C U11C C12G C13G,1.05
3,U8A G9U U10C U11C C12U,1.04
4,U8A G9U U10C U11C C12G,1.03
5,U8A G9U U10C U11C C12A,1.01
6,U8A G9C U10G U11G C12U C13U,1.11
7,U8A G9C U10G U11G C12U C13G,1.08
8,U8A G9C U10G U11G C12U C13A,1.08
9,U8A G9U C12A C13A,1.52
10,U8A G9U C12A C13G,1.16
11,U8A G9U C12A C13U,1.15
12,U8A G9U U10C U11G C12G C13U,1.11
13,U8A G9U U10C U11G C12G C13A,1.15
14,U8A G9U U10C U11G C12G C13G,1.11
15,U8A G9U U10A U11A C12A C13A,1.16
16,U8A G9U U10A U11A C12A C13G,1.23
17,U8A G9U U10A U11A C12A C13U,1.24
18,U8A G9C U11A C12A C13G,1.18
19,U8A G9C U11A C12A C13A,1.22
20,U8A G9C U11A C12A C13U,1.21
21,U8A G9U U10A C12G,1.31
22,U8A G9U U10A C12U,1.4
23,U8A G9U U10A C12A,1.34
